For experiment [1], the target named is T1, prostate-specific membrane antigen (PSMA) (human, UniProt Q04609 1-750). In words: FACS binding; C4-2 cells; apparent EC50.
Experiment [2] deals with T1, prostate-specific membrane antigen …. Put plainly: FACS binding; LNCaP cells.

T1 sequence (Q04609 whole entry): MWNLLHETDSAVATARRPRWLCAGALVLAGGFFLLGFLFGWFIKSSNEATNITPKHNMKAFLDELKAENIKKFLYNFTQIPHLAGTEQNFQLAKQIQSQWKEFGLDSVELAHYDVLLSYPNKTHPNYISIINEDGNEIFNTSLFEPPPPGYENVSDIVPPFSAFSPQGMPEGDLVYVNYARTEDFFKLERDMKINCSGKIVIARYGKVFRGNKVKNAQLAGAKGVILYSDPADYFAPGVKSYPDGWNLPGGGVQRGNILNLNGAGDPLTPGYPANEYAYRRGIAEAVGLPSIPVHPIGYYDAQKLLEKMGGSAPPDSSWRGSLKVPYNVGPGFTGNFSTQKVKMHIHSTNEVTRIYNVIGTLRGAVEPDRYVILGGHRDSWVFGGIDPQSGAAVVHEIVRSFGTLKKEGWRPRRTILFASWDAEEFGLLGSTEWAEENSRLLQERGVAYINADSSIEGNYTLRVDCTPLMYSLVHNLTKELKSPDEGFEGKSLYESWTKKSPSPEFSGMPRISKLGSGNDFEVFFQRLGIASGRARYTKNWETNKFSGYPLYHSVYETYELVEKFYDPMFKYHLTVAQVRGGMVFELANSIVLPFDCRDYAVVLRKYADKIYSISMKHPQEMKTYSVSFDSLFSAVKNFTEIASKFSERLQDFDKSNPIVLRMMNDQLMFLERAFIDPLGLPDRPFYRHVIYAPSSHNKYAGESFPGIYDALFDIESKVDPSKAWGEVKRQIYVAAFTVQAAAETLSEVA

B1: TSC188 humanized SMIP (107-1A4 VL-VH#1 scFv-Fc) (Fc fusion)
chain: DIQMTQSPSAMSASVGDRVTITCRASKSISKYLAWFQQKPGKVPKLRIHSGSTLQSGVPSRFSGSGSGTEFTLTISSLQPEDFATYYCQQHIEYPWTFGQGTKVEIKRGGGGSGGGGSGGGGSEVQLVQSGAEVKKPGATVKISCKASGYTFTDYYMHWVQQAPGKGLEWMGYFNPYNDYTRYAEKFQGRVTITADTSTDTAYMELSSLRSEDTAVYYCARSDGYYDAMDYWGQGTTVTVSSSEPKSSDKTHTCPPCPAPEAAGAPSVFLFPPKPKDTLMISRTPEVTCVVVDVSHEDPEVKFNWYVDGVEVHNAKTKPREEQYNSTYRVVSVLTVLHQDWLNGKAYACAVSNKALPAPIEKTISKAKGQPREPQVYTLPPSRDELTKNQVSLTCLVKGFYPSDIAVEWESNGQPENNYKTTPPVLDSDGSFFLYSKLTVDKSRWQQGNVFSCSVMHEALHNHYTQKSLSLSPGK
Consider B1, for which, in experiment [1], the EC50 (commonly the concentration needed to bring the measured effect to its halfway point) was found to be 3.2 nM.

B2: TSC085 chimeric SMIP (murine 107-1A4 VL-VH scFv-human Fc) (Fc fusion)
chain: DVQITQSPSYLAASPGETITINCRASKSISKYLAWYQEKPGKANKLLIHSGSTLQSGIPSRFSGSGSGTDFTLTISSLEPEDFAMYYCQQHIEYPWTFGGGTKLEIKRAGGGGSGGGGSSGGGGSEIQLQQSGPELVKPGASVKMSCKASGYTFTDYYMHWVKQNNGESLEWIGYFNPYNDYTRYNQNFNGKATLTVDKSSSTAYMQLNSLTSEDSAFYYCARSDGYYDAMDYWGQGTSVTVSSSEPKSSDKTHTCPPCPAPEAAGAPSVFLFPPKPKDTLMISRTPEVTCVVVDVSHEDPEVKFNWYVDGVEVHNAKTKPREEQYNSTYRVVSVLTVLHQDWLNGKAYACAVSNKALPAPIEKTISKAKGQPREPQVYTLPPSRDELTKNQVSLTCLVKGFYPSDIAVEWESNGQPENNYKTTPPVLDSDGSFFLYSKLTVDKSRWQQGNVFSCSVMHEALHNHYTQKSLSLSPGK
As for B2, the response in experiment [2] was half-maximal at 4.9 nM (EC50).

B3: TSC092 chimeric SMIP (murine 107-1A4 VH-VL scFv-human Fc) (Fc fusion)
chain: EIQLQQSGPELVKPGASVKMSCKASGYTFTDYYMHWVKQNNGESLEWIGYFNPYNDYTRYNQNFNGKATLTVDKSSSTAYMQLNSLTSEDSAFYYCARSDGYYDAMDYWGQGTSVTVSSGGGGSGGGGSSGGGGSDVQITQSPSYLAASPGETITINCRASKSISKYLAWYQEKPGKANKLLIHSGSTLQSGIPSRFSGSGSGTDFTLTISSLEPEDFAMYYCQQHIEYPWTFGGGTKLEIKRASSEPKSSDKTHTCPPCPAPEAAGAPSVFLFPPKPKDTLMISRTPEVTCVVVDVSHEDPEVKFNWYVDGVEVHNAKTKPREEQYNSTYRVVSVLTVLHQDWLNGKAYACAVSNKALPAPIEKTISKAKGQPREPQVYTLPPSRDELTKNQVSLTCLVKGFYPSDIAVEWESNGQPENNYKTTPPVLDSDGSFFLYSKLTVDKSRWQQGNVFSCSVMHEALHNHYTQKSLSLSPGK
Turning to B3, the EC50 in experiment [2] came to 4 nM.

B4: TSC189 humanized SMIP (107-1A4 VL-VH#2 scFv-Fc) (Fc fusion)
chain: DIQMTQSPSAMSASVGDRVTITCRASKSISKYLAWFQQKPGKVPKLRIHSGSTLQSGVPSRFSGSGSGTEFTLTISSLQPEDFATYYCQQHIEYPWTFGQGTKVEIKRGGGGSGGGGSGGGGSQVQLVQSGAEVKKPGASVKVSCKASGYTFTDYYMHWVRQAPGQGLEWMGYFNPYNDYTRYAQKFQGRVTMTRDTSISTAYMELSSLRSDDTAVYYCARSDGYYDAMDYWGQGTTVTVSSSEPKSSDKTHTCPPCPAPEAAGAPSVFLFPPKPKDTLMISRTPEVTCVVVDVSHEDPEVKFNWYVDGVEVHNAKTKPREEQYNSTYRVVSVLTVLHQDWLNGKAYACAVSNKALPAPIEKTISKAKGQPREPQVYTLPPSRDELTKNQVSLTCLVKGFYPSDIAVEWESNGQPENNYKTTPPVLDSDGSFFLYSKLTVDKSRWQQGNVFSCSVMHEALHNHYTQKSLSLSPGK
For the molecule B4, the concentration for a half-maximal effect (EC50) in experiment [1] amounted to 2.1 nM.

B5: 107-1A4 murine monoclonal antibody (antibody, V domains shown)
VH: EIQLQQSGPELVKPGASVKMSCKASGYTFTDYYMHWVKQNNGESLEWIGYFNPYNDYTRYNQNFNGKATLTVDKSSSTAYMQLNSLTSEDSAFYYCARSDGYYDAMDYWGQGTSVTVSS
VL: DVQITQSPSYLAASPGETITINCRASKSISKYLAWYQEKPGKANKLLIHSGSTLQSGIPSRFSGSGSGTDFTLTISSLEPEDFAMYYCQQHIEYPWTFGGGTKLEIKR
For B5, in experiment [2], the midpoint of the response, the EC50, lay at 5.4 nM.
